For 19 molecules, binding result, Kd and EC50 results are on record in patent US20210403595 (published 2021).

Usually Kd stands for a measure of binding affinity in units of concentration. A higher Kd goes with weaker binding. Usually EC50 stands for the midpoint of the concentration-response curve. Lower therefore signals higher potency in that assay.

Like-named read-outs stand apart in the source and are kept apart here.

The target in test [1] is T1, cynomolgus CD3 on T cells (cynomolgus monkey).
T1 chain: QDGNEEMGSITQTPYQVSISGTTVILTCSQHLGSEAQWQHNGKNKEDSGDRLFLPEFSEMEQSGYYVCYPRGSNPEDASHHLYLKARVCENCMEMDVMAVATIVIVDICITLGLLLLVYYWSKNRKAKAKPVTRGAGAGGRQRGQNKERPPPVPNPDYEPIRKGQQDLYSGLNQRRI
The test can be described thus: FACS. In general terms: In flow cytometry, cells or beads pass a laser one at a time.

Test [2] has as its target human CD3 epsilon/delta heterodimer, Fc-tagged (human). The test can be described thus: SPR, 37C. In general terms: Surface plasmon resonance follows binding to a sensor surface in real time, without labels.
In test [3] the target is human CD3 on Jurkat cells (human). The test can be described thus: FACS.
The target of test [4] is T1, cynomolgus CD3 on T cells. The experiment in a line: FACS.
The target in test [5] is human CD3 on Jurkat cells (human). The experiment in a line: FACS. The source holds these as a separate data set.
The next test deals with human PSMA on cells (human). The test can be described thus: FACS, B16F10.9/PSMA.
Chain of human PSMA on cells (human) (A4UU12 whole entry): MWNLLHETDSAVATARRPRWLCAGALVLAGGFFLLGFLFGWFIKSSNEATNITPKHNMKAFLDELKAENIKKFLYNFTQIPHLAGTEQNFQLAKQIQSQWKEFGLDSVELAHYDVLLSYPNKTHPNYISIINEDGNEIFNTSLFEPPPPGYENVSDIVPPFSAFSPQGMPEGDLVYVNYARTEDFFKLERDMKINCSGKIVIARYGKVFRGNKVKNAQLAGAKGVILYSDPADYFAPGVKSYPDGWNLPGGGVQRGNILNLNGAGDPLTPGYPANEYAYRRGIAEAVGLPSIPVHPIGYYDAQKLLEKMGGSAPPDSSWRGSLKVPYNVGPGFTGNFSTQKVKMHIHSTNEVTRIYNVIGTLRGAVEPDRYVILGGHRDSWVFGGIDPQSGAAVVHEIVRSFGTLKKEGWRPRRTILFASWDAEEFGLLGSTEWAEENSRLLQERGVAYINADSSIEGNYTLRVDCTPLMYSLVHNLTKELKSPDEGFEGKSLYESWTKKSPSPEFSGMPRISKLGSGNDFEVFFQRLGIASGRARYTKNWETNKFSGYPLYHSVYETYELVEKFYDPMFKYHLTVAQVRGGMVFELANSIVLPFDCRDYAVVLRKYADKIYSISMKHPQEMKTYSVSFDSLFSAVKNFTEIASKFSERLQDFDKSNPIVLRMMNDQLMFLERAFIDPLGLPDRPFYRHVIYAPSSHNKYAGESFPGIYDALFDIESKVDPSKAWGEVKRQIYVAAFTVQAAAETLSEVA

Chain of human CD3 on Jurkat cells (human) (chain, as listed by the source, chain 1 of 2): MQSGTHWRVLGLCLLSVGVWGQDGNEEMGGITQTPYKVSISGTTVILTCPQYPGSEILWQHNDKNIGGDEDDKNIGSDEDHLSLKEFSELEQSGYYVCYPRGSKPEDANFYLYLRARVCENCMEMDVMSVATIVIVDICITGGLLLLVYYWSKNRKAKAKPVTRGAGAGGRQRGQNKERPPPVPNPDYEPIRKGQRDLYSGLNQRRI
Chain of human CD3 on Jurkat cells (human) (chain, as listed by the source, chain 2 of 2): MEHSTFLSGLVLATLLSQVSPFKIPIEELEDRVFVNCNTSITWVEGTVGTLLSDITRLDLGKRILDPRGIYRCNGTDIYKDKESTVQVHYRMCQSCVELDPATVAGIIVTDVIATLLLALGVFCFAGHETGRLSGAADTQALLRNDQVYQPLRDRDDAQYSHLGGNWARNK
Chain of human CD3 epsilon/delta heterodimer, Fc-tagged (human) (chain, as listed by the source mutant, chain 1 of 2): as the sequence (chain, as listed by the source, chain 1 of 2) above
Chain of human CD3 epsilon/delta heterodimer, Fc-tagged (human) (chain, as listed by the source mutant, chain 2 of 2): as the sequence (chain, as listed by the source, chain 2 of 2) above

B1: BSPSMA/CD3-1900 CD3 arm (antibody, V domains shown)
VH: EVQLVESGGGLVQPGRSLRLSCAASGFTFDDYSMHWVRQAPGKGLEWVSGISWNSGSIGYADSVKGRFTISRDNAKNSLYLQMNSLRAEDTALYYCAKDGSGYGKFYHYGMDVWGQGTTVTVSS
VL: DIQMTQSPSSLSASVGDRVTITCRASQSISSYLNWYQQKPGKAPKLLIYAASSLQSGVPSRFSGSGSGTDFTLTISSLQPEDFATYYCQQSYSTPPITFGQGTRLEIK
For the molecule B1, the binding result in test [1] is reported as “no binding”. This molecule also came in with a dissociation constant Kd in test [2] of 115 nM. The molecule also yielded an EC50 in test [3] of 60.7 nM.

B2: BSPSMA/CD3-1700 CD3 arm (antibody, V domains shown)
VH: EVQLVESGGGLVQPGRSLRLSCAASGFTFDDYSMHWVRQAPGKGLEWVSGISWNSGSKGYADSVKGRFTISRDNAKNSLYLQMNSLRAEDTALYYCAKYGSGYGKFYYYGMDVWGQGTTVTVSS
VL: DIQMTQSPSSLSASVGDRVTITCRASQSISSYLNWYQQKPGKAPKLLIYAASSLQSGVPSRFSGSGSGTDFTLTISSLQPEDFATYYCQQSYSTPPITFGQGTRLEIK
Regarding B2, the dissociation constant Kd in test [2] came out at 65.2 nM. Besides, the EC50 in test [4] is 3350 nM; in test [3], 200 nM.

B3: BSPSMA/CD3-1000 CD3 arm (antibody, V domains shown)
VH: EVQLVESGGGLVQPGRSLRLSCAASGFTFDDYSMHWVRQAPGKGLEWVSGISWNSGSKGYADSVKGRFTISRDNAKNSLYLQMNSLRAEDTALYYCAKYGSGYGKFYYYGLDVWGQGTTVTVSS
VL: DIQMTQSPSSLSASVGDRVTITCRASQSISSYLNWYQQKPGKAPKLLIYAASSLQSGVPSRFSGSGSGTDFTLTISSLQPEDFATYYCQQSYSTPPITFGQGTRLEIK
Consider B3, for which, in test [1], the binding result is “no binding”. Further, in test [2], the Kd amounted to 185 nM. This molecule also had an EC50 in test [3] of 277 nM.

B4: BSPSMA/CD3-1600 CD3 arm (antibody, V domains shown)
VH: EVQLVESGGGLVQPGRSLRLSCAASGFTFDDYSMHWVRQAPGKGLEWVSGISWNSGSKGYADSVKGRFTISRDNAKNSLYLQMNSLRAEDTALYYCAKDGSGYGKFYHYGMDVWGQGTTVTVSS
VL: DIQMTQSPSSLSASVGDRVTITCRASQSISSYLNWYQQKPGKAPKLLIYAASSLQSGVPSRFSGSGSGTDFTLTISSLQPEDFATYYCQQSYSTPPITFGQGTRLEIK
Take B4: in test [1], the binding result is recorded as “no binding”. Also, the Kd in test [2] was determined as 37.8 nM. Also, in test [3], the EC50 amounted to 56.8 nM.

B5: BSPSMA/CD3-900 CD3 arm (antibody, V domains shown)
VH: EVQLVESGGGLVQPGRSLRLSCAASGFTFDDYSMHWVRQAPGKGLEWVSGISWNSGSKGYADSVKGRFTISRDNAKNSLYLQMNSLRAEDTALYYCAKDGSGYGKFYHYGLDVWGQGTTVTVSS
VL: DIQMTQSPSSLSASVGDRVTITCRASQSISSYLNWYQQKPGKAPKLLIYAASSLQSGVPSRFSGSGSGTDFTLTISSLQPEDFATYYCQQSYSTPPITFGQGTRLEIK
Consider B5, for which, in test [1], the binding result is on record as “no binding”. In test [2], this molecule displayed a Kd of 113 nM. The molecule further returned an EC50 in test [3] of 274 nM.

B6: BSPSMA/CD3-1500 CD3 arm (antibody, V domains shown)
VH: EVQLVESGGGLVQPGRSLRLSCAASGFTFDDYSMHWVRQAPGKGLEWVSGISWNSGSKGYADSVKGRFTISRDNAKNSLYLQMNSLRAEDTALYYCAKDGSGYGKFYYYGLDVWGQGTTVTVSS
VL: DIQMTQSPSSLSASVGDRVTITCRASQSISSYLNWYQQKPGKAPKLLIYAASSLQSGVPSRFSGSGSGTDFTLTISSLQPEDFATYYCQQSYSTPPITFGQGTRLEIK
On to B6, for which the binding result in test [1] was “no binding”. This molecule displayed an equilibrium dissociation constant (Kd) in test [2] of 82.9 nM. Moreover, in test [3], the EC50 was determined as 93 nM.

B7: BSPSMA/CD3-003 CD3 arm (antibody, V domains shown)
VH: EVQLVESGGGLVQPGRSLRLSCAASGFTFDDYSMHWVRQAPGKGLEWVSGISWNSGSKGYADSVKGRFTISRDNAKNSLYLQMNSLRAEDTALYYCAKYGSGYGKFYHYGLDVWGQGTTVTVSS
VL: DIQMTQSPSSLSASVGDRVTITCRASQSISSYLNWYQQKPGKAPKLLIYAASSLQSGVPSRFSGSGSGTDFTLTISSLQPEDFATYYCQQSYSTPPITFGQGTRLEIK
Consider B7, for which binding in test [2] was characterised by a dissociation constant (Kd) of 5.78 nM. The EC50 in test [4] turned out to be 14.2 nM.

B8: BSPSMA/CD3-800 CD3 arm (antibody, V domains shown)
VH: EVQLVESGGGLVQPGRSLRLSCAASGFTFDDYSMHWVRQAPGKGLEWVSGISWNSGSIGYADSVKGRFTISRDNAKNSLYLQMNSLRAEDTALYYCAKYGSGYGKFYHYGLDVWGQGTTVTVSS
VL: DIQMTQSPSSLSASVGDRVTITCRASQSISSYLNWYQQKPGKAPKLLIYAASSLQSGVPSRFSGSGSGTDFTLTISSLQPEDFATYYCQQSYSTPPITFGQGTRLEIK
As to B8, the Kd in test [2] turned out to be 19.4 nM. The molecule also gave an EC50 in test [4] of 19.6 nM.

B9: BSPSMA/CD3-2100 CD3 arm (antibody, V domains shown)
VH: EVQLVESGGGLVQPGRSLRLSCAASGFTFDDYSMHWVRQAPGKGLEWVSGISWNSGSKGYADSVKGRFTISRDNAKNSLYLQMNSLRAEDTALYYCAKDGSGYGKFYYYGMDVWGQGTTVTVSS
VL: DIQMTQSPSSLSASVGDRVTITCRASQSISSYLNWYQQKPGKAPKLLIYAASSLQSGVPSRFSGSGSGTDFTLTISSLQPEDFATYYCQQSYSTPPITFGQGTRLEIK
As to B9, the binding result in test [1] was “no binding”. This molecule registered an equilibrium dissociation constant (Kd) in test [2] of 77.5 nM. Besides, in test [3], it took 106 nM to reach a half-maximal effect (EC50).

B10: BSPSMA/CD3-1200 CD3 arm (antibody, V domains shown)
VH: EVQLVESGGGLVQPGRSLRLSCAASGFTFDDYSMHWVRQAPGKGLEWVSGISWNSGSIGYADSVKGRFTISRDNAKNSLYLQMNSLRAEDTALYYCAKDGSGYGKFYHYGLDVWGQGTTVTVSS
VL: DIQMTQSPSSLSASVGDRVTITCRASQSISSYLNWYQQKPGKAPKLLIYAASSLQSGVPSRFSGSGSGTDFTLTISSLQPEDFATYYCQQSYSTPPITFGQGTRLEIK
Take B10: the binding result in test [1] is “no binding”. In addition, in test [2], the Kd came to 64.2 nM. Also, in test [3], the EC50 amounted to 47.2 nM.

B11: H1H5786B (antibody, V domains shown)
VH: QVQLVESGAEVKKPGASVKVSCKTSGYTFTGYYMHWIRQAPGQGLEWMGWINPKSGGTNYAQKFQGRVTMTRDTSISTAYMELSRLRSDDMAVYYCARMGDGAVFDFWGQGTLVTVSS
VL: AIQMTQSPSSLSASVGDRVTITCRASQRISSFLNWYQQKPGKAPKLLIYTASNLQNGVPSRFSGSGSGTDFTLTISSLQPEDFATYYCQQSYRTPLTFGGGTKVEIKR
In test [5], B11 displayed an EC50 of 1.1 nM.

B12: H1H5758B (antibody, V domains shown)
VH: EVQLVESGGGVVQPGRSLRLSCAASGFTFSSYGMHWVRQAPGKGLEWVTVILHDGSNRYYADSVKGRFTISRDNSKNTLYLQMNILRAEDTAVYYCTKGAMVRGVPYNHYYGMDVWGQGTTVTVSS
VL: DIVMTQSPSSLSASVGDRVTITCRASQGIRNDLGWYQQKPGKAPKRLIYAASNLQSGVPSRFSGSGSGTEFTLTISSLQPEDFATYYCLQHNSYPYTFGQGTKLEIKR
With B12, in test [5], the EC50 stood at 1.9 nM.

B13: BSPSMA/CD3-001 CD3 arm (antibody, V domains shown)
VH: EVQLVESGGGLVQPGRSLRLSCVASGFTFADFTMHWVRQAPGKGLEWVSGISWNSNSIDYADSVKGRFTISRDNAKKSLFLQMSSLRAEDTALYYCVKDRSGYSRFYYGMDVWGQGTTVTVSS
VL: EIVMTQSPATLSVSPGERAILSCRASQNINSNLAWYQQKPGQAPRLLIYGASTRATGVPARFSGSGSGTEFTLTIRSLQSEDFAVYYCQQYYNWPITFGHGTRLEIK
B13: the midpoint of the response in test [3], the EC50, lay at 39.1 nM.

B14: BSPSMA/CD3-1100 PSMA arm (antibody, V domains shown)
VH: QVQLVESGGGVVQPGRSLRLSCAASGFTFSSYGMHWVRQAPGKGLEWVAVISYAGNNKYYADSVKGRFTVSRDNSKKTLYLQMNSLRSEDTAVYYCAKDSYYDFLTDPDVLDIWGQGTMVTVSS
VL: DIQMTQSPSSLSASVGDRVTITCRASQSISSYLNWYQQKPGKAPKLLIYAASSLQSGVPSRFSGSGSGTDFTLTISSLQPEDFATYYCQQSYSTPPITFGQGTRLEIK
Molecule B14 showed an EC50 with human PSMA on cells of 1.03 nM.

B15: BSPSMA/CD3-1800 PSMA arm (antibody, V domains shown)
VH: QVQLVESGGGVVQPGRSLRLSCAASGFTFSSYGMHWVRQAPGKGLEWVAVISYAGNNKYYADSVKGRFTVSRDNSKKTLYLQMNSLRSEDTAVYYCAKDSYYDFLTDPDVLDIWGQGTMVTVSS
VL: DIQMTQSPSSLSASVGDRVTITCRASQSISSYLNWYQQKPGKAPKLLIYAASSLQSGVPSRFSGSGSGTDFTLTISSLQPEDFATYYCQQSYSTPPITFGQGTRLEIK
Turning to B15, the EC50 with human PSMA on cells amounted to 2.16 nM.

B16: BSPSMA/CD3-005 PSMA arm (antibody, V domains shown)
VH: QVQLVESGGGVVQPGRSLRLSCAASGFTFSSYGMHWVRQAPGKGLEWVAVISYAGNNKYYADSVKGRFTVSRDNSKKTLYLQMNSLRSEDTAVYYCAKDSYYDFLTDPDVLDIWGQGTMVTVSS
VL: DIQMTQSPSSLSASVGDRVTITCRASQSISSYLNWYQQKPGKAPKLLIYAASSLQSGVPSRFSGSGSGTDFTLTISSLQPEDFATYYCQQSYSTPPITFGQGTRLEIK
B16 registered an EC50 with human PSMA on cells of 2.09 nM.

B17: BSPSMA/CD3-200 PSMA arm (antibody, V domains shown)
VH: QVQLVESGGGVVQPGRSLRLSCAASGFTFSSYGMHWVRQAPGKGLEWVAVISYAGNNKYYADSVKGRFTVSRDNSKKTLYLQMNSLRSEDTAVYYCAKDSYYDFLTDPDVLDIWGQGTMVTVSS
VL: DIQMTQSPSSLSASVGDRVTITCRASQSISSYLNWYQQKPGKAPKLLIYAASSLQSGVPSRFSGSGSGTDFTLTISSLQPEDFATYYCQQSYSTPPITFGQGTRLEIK
B17: a half-maximal effect with human PSMA on cells (EC50) was put at 1.88 nM.

B18: BSPSMA/CD3-1000 PSMA arm (antibody, V domains shown)
VH: QVQLVESGGGVVQPGRSLRLSCAASGFTFSSYGMHWVRQAPGKGLEWVAVISYAGNNKYYADSVKGRFTVSRDNSKKTLYLQMNSLRSEDTAVYYCAKDSYYDFLTDPDVLDIWGQGTMVTVSS
VL: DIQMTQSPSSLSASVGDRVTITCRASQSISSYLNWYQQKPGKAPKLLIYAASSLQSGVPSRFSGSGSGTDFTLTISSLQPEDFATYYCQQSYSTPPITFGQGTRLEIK
B18 returned an EC50 with human PSMA on cells of 1.19 nM.

B19: BSPSMA/CD3-1900 PSMA arm (antibody, V domains shown)
VH: QVQLVESGGGVVQPGRSLRLSCAASGFTFSSYGMHWVRQAPGKGLEWVAVISYAGNNKYYADSVKGRFTVSRDNSKKTLYLQMNSLRSEDTAVYYCAKDSYYDFLTDPDVLDIWGQGTMVTVSS
VL: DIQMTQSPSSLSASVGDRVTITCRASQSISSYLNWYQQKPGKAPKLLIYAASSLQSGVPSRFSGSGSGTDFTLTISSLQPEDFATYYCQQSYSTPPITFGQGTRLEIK
In turn, B19 came in with a concentration for a half-maximal effect (EC50) in the test with human PSMA on cells of 1.35 nM.
